Source: article doi:10.1101/2025.09.02.673809

Target: HLA-DQ8 molecule (DQA1*03:01-DQB1*03:02) (human)
Assay: ProImmune REVEAL MHC-peptide binding assay

- fold affinity against the reference peptide (T1D auto-antigen …): 41 fold
Binder: EALYLVCGNAVEVLK [insulin-derived 15-mer …]
